According to patent US20260263554A1, “COMPOSITION COMPRISING CPNE7 PROTEIN OR CPNE7 PROTEIN-DERIVED PEPTIDE FOR REMOVING REACTIVE OXYGEN SPECIES IN CELLS” (HYSENSBIO CO., LTD, priority 2022, published 2026):

Experiments:
[1] = tested on: endogenous antioxidant enzymes in hDPC cells; experiment: mRNA levels of endogenous antioxidant enzymes by RT-PCR; type: cell-based, human; conditions: hDPCs, 1 mM H2O2, CPNE7 recombinant protein 100 ng/mL or Selcopintide 10 ug/mL
Procedure: Cultured hDPCs were seeded into 60 mm culture dishes at a density of 4×10^5 cells, cultured for 24 hours, and then treated with 1 mM H2O2 and treated with the CPNE7 recombinant protein (100 ng/mL) and Selcopintide (10 ug/mL). After 30 minutes and one hour, the mRNA levels of Sod1, 2, and 3, catalase, Gpx7, Hmox1, and Txmd1 were checked.

hDPCs [2] = experiment: Reactive oxygen species level with DCFDA, confocal microscope; type: cell-based, human; conditions: 1 mM H2O2, 100 ng/mL rCPNE7, imaged for approximately one hour
Procedure: Cultured hDPCs were seeded into 35 mm culture dishes for a confocal microscope at a density of 1×10^5 cells, cultured for 24 hours, and then treated with 1 mM H2O2 and treated with 100 ng/mL of rCPNE7. Then, images were taken for approximately one hour using a confocal microscope.
Cultured hDPCs were seeded into 35 mm culture dishes for a confocal microscope at a density of 1×10^5 cells, cultured for 24 hours, and then treated with 1 mM H2O2 and treated with 10 μg/mL of Selcopintide. Thereafter, images were taken for approximately one hour using a confocal microscope.

hDPCs [3] = experiment: Beta-galactosidase (B-gal) staining, cell aging; type: cell-based, human; conditions: 1 mM H2O2, 100 ng/mL rCPNE7, 12 or 24 hours, compared to H2O2-only-treated group
Procedure: For this purpose, cultured hDPCs were seeded into 6-well plates at a density of 1×10^5 cells, cultured for 24 hours, and then treated with 1 mM H2O2 and treated with 100 ng/mL of rCPNE7. After 12 or 24 hours, the cells were fixed with 4% paraformaldehyde.
Next, B-gal staining was performed on the fixed cells for 24 hours to compare the degree of cell aging.

hDPCs [4] = experiment: Immunofluorescence staining with γ-H2A.X (DNA damage marker); type: cell-based, human; conditions: 1 mM H2O2, 100 ng/mL CPNE7 recombinant protein, 24 hours, vs 1 mM H2O2 group
Procedure: Cultured hDPCs were seeded into 35 mm culture dishes for a confocal microscope at a density of 1×10^5 cells, cultured for 24 hours, and then treated with 1 mM H2O2 and treated with 100 ng/mL of rCPNE7. After 24 hours, the cells were fixed with 4% paraformaldehyde.
Immunofluorescence staining using a γ-H2A.X antibody was performed on the fixed cells to compare intensity.
Cultured hDPCs were seeded into 35 mm culture dishes for a confocal microscope at a density of 1×10^5 cells, cultured for 24 hours, and then treated with 1 mM H2O2 and treated with 10 μg/mL of Selcopintide. After 24 hours, the cells were fixed with 4% paraformaldehyde.

[5] = tested on: Human dental pulp cells (hDPCs); experiment: Optical microscope observation of hDPCs after H2O2 and test substance; type: cell-based; conditions: H2O2 5 uM, 100 uM, 1 mM or 2 mM, 100 ng/ml recombinant CPNE7 protein, 24 hours, compared to control without rCPNE7
Procedure: Human dental pulp cells (hDPCs) were cultured in an α-MEM medium containing 10% FBS under 37° C. and 5% CO2 conditions.
hDPCs were seeded into 35 mm culture dishes at a density of 1×10^5 cells, cultured for 24 hours, treated with H2O2 at a concentration of 5 uM, 100 uM, 1 mM, or 2 mM, respectively, and then treated with 100 ng/ml of a recombinant CPNE7 protein and cultured for 24 hours. After the culture was completed, the cultured cells were washed with PBS, and observed using an optical microscope. At this time, the hDPCs cultured without treating the recombinant CPNE7 protein (rCPNE7) were used as the control.
Cultured hDPC cells were seeded into 6-well plates at a density of 1×10^5 cells per well, cultured for 24 hours, and then treated with 1 mM hydrogen peroxide (H2O2) and treated with Selcopintide at concentrations of 1 μg/mL, 10 μg/mL, 100 μg/mL, and 500 μg/mL for 24 hours. Untreated hDPCs were used as the control.

B1: CPNE7 recombinant protein: recombinant Copine-7 (CPNE7) protein (protein, UniProt Q9UBL6 1-633, looked up)
Copine-7: MSAGSERGAAATPGGLPAPCASKVELRLSCRHLLDRDPLTKSDPSVALLQQAQGQWVQVGRTEVVRSSLHPVFSKVFTVDYYFEEVQRLRFEVYDTHGPSGFSCQEDDFLGGMECTLGQPAQKWLLQVVMRVSVDVLGPAGHCAKHFLCCTESSHLARTGPSFLLRYDDLCLPWATAGAVRWWTCRGGHTQGWQIVAQKKVTRPLLLKFGRNAGKSTITVIAEDISGNNGYVELSFRARKLDDKDLFSKSDPFLELYRVNDDQGLQLVYRTEVVKNNLNPVWEAFKVSLSSLCSCEETRPLKCLVWDYDSRGKHDFIGEFSTTFEEMQKAFEEGQAQWDCVNPKYKQKRRSYKNSGVVVLADLKFHRVYSFLDYIMGGCQIHFTVAIDFTASNGDPRNSCSLHYINPYQPNEYLKALVSVGEICQDYDSDKRFSALGFGARIPPKYEVSHDFAINFNPEDDECEGIQGVVEAYQNCLPRVQLYGPTNVAPIISKVARVAAAEESTGKASQYYILLILTDGVVTDMADTREAIVRASRLPMSIIIVGVGNADFTDMQVLDGDDGVLRSPRGEPALRDIVQFVPFRELKNASPAALAKCVLAEVPKQVVEYYSHRGLPPRSLGVPAGEASPGCTP
- mRNA of endogenous antioxidant enzymes Sod1, 2, and catalase ([1]; after 30 minutes, compared to H2O2-only-treated group): significantly increased
- mRNA of Sod1 and Gpx7, and Hmox1 and Txrnd1 ([1]; after one hour): significantly increased
- amount of reactive oxygen species (DCFDA) (hDPCs [2]): decreased and became significant at approximately one hour
- B-gal positive hDPC cells (hDPCs [3]): significantly reduced
- accumulation of DNA damage (γ-H2A.X intensity) (hDPCs [4]): significantly reduced
- cell viability (optical microscope) [5]: higher
